From IntAct's records for PubMed 21360678 come the findings set out here.

Sequences and labels used below:
B1: Serine/threonine-protein phosphatase 5 (Homo sapiens), P53041 (parent)
chain: MAMAEGERTECAEPPRDEPPADGALKRAEELKTQANDYFKAKDYENAIKFYSQAIELNPSNAIYYGNRSLAYLRTECYGYALGDATRAIELDKKYIKGYYRRAASNMALGKFRAALRDYETVVKVKPHDKDAKMKYQECNKIVKQKAFERAIAGDEHKRSVVDSLDIESMTIEDEYSGPKLEDGKVTISFMKELMQWYKDQKKLHRKCAYQILVQVKEVLSKLSTLVETTLKETEKITVCGDTHGQFYDLLNIFELNGLPSETNPYIFNGDFVDRGSFSVEVILTLFGFKLLYPDHFHLLRGNHETDNMNQIYGFEGEVKAKYTAQMYELFSEVFEWLPLAQCINGKVLIMHGGLFSEDGVTLDDIRKIERNRQPPDSGPMCDLLWSDPQPQNGRSISKRGVSCQFGPDVTKAFLEENNLDYIIRSHEVKAEGYEVAHGGRCVTVFSAPNYCDQMGNKASYIHLQGSDLRPQFHQFTAVPHPNVKPMAYANTLLQLGMM
partner: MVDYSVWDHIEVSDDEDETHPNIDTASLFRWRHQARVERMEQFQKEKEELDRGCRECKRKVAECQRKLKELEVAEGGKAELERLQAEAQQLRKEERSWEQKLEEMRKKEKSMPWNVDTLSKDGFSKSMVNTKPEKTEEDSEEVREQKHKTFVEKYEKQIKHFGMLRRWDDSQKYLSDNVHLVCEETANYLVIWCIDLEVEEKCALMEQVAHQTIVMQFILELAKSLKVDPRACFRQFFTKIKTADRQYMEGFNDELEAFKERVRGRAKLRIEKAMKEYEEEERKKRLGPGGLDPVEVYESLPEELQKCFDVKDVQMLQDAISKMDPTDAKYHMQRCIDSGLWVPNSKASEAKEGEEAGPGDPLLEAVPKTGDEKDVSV

The variants in this assay derive from B1. The settings on record: with cdc37_human CDC37, Q16543.
As to MAMAEGERTECAEPPRDEPPADGALKRAEELKTQANDYFKAKDYENAIKFYSQAIELNPSNAIYYGNRSLAYLRTECYGYALGDATRAIELDKKYIAGYYARAASNMALGKFRAALRDYETVVKVKPHDKDAKMKYQECNKIVKQKAFERAIAGDEHKRSVVDSLDIESMTIEDEYSGPKLEDGKVTISFMKELMQWYKDQKKLHRKCAYQILVQVKEVLSKLSTLVETTLKETEKITVCGDTHGQFYDLLNIFELNGLPSETNPYIFNGDFVDRGSFSVEVILTLFGFKLLYPDHFHLLRGNHETDNMNQIYGFEGEVKAKYTAQMYELFSEVFEWLPLAQCINGKVLIMHGGLFSEDGVTLDDIRKIERNRQPPDSGPMCDLLWSDPQPQNGRSISKRGVSCQFGPDVTKAFLEENNLDYIIRSHEVKAEGYEVAHGGRCVTVFSAPNYCDQMGNKASYIHLQGSDLRPQFHQFTAVPHPNVKPMAYANTLLQLGMM [K97A;R101A], the “effect of a mutation on the interaction” value is recorded as “disrupting interaction”.
